Target: human BCMA-His (human) (UniProt Q02223)
Test: BLI (Octet), 1:1 fit

REGN-BCMA/CD3 (REGN5458) (bispecific antibody), sequence (VH): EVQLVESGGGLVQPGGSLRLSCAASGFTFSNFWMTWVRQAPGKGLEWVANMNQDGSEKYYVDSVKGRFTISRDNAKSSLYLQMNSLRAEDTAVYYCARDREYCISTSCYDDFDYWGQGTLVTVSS
REGN-BCMA/CD3 (REGN5458) (bispecific antibody), sequence (VL): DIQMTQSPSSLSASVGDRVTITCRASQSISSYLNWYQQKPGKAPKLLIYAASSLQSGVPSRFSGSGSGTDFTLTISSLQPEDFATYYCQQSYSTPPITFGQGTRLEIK
REGN-BCMA/CD3 (REGN5458) (bispecific antibody), sequence (chain): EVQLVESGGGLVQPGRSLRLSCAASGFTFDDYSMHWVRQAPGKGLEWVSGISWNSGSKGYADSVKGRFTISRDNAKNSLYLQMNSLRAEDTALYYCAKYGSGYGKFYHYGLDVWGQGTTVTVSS
human BCMA-His (human), sequence (Q02223 1-54): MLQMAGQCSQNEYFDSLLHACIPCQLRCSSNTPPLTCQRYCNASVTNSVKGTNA
JNJ-BCMA/CD3 (Teclistamab) (bispecific antibody), sequence (heavy): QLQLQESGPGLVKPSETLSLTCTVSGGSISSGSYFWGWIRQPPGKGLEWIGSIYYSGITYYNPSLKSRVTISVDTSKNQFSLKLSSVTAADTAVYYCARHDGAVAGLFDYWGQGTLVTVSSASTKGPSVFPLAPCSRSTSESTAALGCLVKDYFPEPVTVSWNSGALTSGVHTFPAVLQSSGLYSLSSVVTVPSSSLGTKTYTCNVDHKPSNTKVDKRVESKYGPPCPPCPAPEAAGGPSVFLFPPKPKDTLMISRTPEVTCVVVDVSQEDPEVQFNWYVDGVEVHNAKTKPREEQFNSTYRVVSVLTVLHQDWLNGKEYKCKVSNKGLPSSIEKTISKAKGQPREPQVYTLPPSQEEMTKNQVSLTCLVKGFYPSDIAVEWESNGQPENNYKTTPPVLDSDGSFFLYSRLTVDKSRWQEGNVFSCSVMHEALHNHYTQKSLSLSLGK
JNJ-BCMA/CD3 (Teclistamab) (bispecific antibody), sequence (light): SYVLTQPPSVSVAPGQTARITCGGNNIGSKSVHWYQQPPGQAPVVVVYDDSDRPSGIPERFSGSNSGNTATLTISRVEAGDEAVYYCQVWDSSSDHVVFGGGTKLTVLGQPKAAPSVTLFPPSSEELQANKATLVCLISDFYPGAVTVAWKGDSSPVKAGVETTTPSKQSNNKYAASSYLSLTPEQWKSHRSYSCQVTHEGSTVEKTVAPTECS
JNJ-BCMA/CD3 (Teclistamab) (bispecific antibody), sequence (heavy): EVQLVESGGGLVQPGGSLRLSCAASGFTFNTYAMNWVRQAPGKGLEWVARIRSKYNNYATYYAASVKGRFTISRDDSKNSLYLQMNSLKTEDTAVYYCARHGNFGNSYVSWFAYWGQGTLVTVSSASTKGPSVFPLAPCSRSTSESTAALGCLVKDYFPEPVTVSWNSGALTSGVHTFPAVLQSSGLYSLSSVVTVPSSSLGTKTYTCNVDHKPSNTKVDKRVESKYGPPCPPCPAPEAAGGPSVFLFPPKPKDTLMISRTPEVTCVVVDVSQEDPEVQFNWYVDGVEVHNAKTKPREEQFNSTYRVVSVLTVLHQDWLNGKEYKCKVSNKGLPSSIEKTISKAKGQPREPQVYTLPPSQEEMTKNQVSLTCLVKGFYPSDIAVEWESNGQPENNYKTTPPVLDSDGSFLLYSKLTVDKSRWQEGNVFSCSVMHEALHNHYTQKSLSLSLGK
JNJ-BCMA/CD3 (Teclistamab) (bispecific antibody), sequence (light): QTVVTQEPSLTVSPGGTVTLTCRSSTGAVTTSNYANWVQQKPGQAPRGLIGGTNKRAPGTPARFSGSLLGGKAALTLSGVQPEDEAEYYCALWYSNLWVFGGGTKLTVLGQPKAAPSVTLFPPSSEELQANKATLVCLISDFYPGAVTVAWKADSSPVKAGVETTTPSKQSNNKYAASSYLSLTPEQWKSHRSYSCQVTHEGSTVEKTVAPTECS

| Kd [nM] | koff [s⁻¹] | kon [M⁻¹ s⁻¹] | Substance |
| --- | --- | --- | --- |
| 0.435 | 0.000722 | 1.66e+06 | JNJ-BCMA/CD3 (Teclistamab) (bispecific antibody) |
| 1.13 | 0.000792 | 701000 | REGN-BCMA/CD3 (REGN5458) (bispecific antibody) |
| 0.205 | 0.000262 | 1.28e+06 | Roche-BCMA/CD3 (Alnuctamab) (bispecific antibody) |
